Target: Nicotinamide phosphoribosyltransferase (Nampt) (UniProt P43490)
Chain of UniProt P43490 (P43490 whole entry, looked up): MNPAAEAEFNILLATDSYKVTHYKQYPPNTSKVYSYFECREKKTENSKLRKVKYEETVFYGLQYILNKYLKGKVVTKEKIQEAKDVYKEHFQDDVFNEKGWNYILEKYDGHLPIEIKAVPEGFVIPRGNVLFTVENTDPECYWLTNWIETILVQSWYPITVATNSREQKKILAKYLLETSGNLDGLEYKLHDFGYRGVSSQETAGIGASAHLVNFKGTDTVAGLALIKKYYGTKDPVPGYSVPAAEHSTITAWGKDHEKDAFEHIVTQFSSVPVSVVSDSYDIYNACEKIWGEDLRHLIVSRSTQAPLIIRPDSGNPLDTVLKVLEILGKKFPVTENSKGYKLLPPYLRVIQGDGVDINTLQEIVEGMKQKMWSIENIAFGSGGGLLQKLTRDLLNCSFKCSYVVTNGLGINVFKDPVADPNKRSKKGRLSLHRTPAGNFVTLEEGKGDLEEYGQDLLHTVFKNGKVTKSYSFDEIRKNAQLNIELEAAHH

purified recombinant human Eno1
Nampt activity (Cyclex Nampt activity assay kit on anti-Nampt immunoprecipitates of lysates from myotubes treated with 500 or 1000 ug/ml Eno1 for 48 hours): Eno1 treatment increased Nampt activity

Source: patent US20150359861
